Results reported in patent publication US20030139374A1 (University of Texas, published 2003).

Key:
[1] = test system: TNFα; details: cited from earlier work
[2] = test system: cancer patients having progressive disease; details: human, in vivo; cited from earlier work
[3] = test system: 3LL mouse lung carcinoma; test: In vivo tumor thrombosis, 3LL; design: species or system C57BL/6 mice; details: large (>800 mm^3) tumors
Source text: (§1) Tumor test systems were of four types: i) 3LL mouse lung carcinoma growing subcutaneously in C57BL/6 mice; ii) C1300 mouse neuroblastoma growing subcutaneously in BALB/c nu/nu mice; iii) HT29 human colorectal carcinoma growing subcutaneously in BALB/c nu/nu mice; and iv) C1300 Muγ mouse neuroblastoma growing subcutaneously in BALB/c nu/nu mice. The C1300 Muγ tumor is an interferon-γ secreting transfectant derived from the C1300 tumor (Watanabe et al, 1989).
(§2) To establish tumors, 10^6 to 1.5×10^7 tumor cells were injected subcutaneously into the right anterior flank of the mice. When tumors had grown to various sizes, mice were randomly assigned to different study groups. […] Fab′, or bispecific antibody. Other mice received equivalent quantities IgG, Fab′ or bispecific antibody alone. The injections were performed slowly into one of the tail veins over approximately 45 seconds, usually followed by 200 μl of saline.
(§3) Twenty-four hours after being injected with tTF or immunoglobulin-tTF conjugates, the mice were anesthetized with metophane and were exsanguinated by perfusion with heparinized saline. Tumors and normal tissues were excised and immediately fixed in 3% (v/v) formalin. Paraffin sections were cut and stained with hematoxylin and eosin. Blood vessels having open lumens containing erythrocytes and blood vessels containing thrombi were counted. […]

[4] = test system: HT29 (human colorectal carcinoma) xenograft; test: HT29 xenograft necrosis after tTF constructs with Factor VIIa; design: species or system BALB/c nu/nu mice; details: mouse, in vivo, iv
[5] = test system: C1300 mouse neuroblastoma; test: In vivo tumor thrombosis, C1300; design: species or system BALB/c nu/nu mice; details: large tumors (>1000 mm^3); 24 hours after injection
Source text: as §1, §2, §3

[6] = test system: A20 lymphoma cells; test: In vitro coagulation assay on A20 cells with B21-2/10H10 capture antibody; assay type: cell-based, mouse
[7] = test system: C1300 Muγ tumors; test: Anti-tumor effects (tumor growth), C1300 Muγ; assay type: in vivo, nu/nu mice; details: 300 mm^3 at start
Protocol: The tumor test systems were: i) L540 human Hodgkin's disease tumors growing in SCID mice; ii) C1300 Muγ (interferon-secreting) neuroblastoma growing in nu/nu mice; iii) H460 human non-small cell lung carcinoma growing in nu/nu mice. To establish solid tumors, 1.5×10^7 tumor cells were injected subcutaneously into the right anterior flank of SCID or BALB/c nu/nu mice (Charles River Labs., Wilmingham, Mass.). When the tumors had grown to various diameters, mice were assigned to different experimental groups, each containing 4 to 9 mice.
Other mice received equivalent quantities of bispecific antibody alone. The injections were performed over ˜45 seconds into one of the tail veins, followed by 200 μl of saline. The infusions were repeated six days later. Perpendicular tumor diameters were measured at regular intervals and tumor volumes were calculated.
Mice bearing small (300 mm^3) C1300 Muγ tumors were injected intravenously with 16-20 μg tTF219. The treatment was repeated one week later. […] One week after the second treatment with tTF219, tumors were 60% of the size of tumors in mice receiving diluent alone. The greater effectiveness of the second injection probably derives from the greater thrombotic action of tTF219 on vessels in large tumors, observed above. […]

[8] = test system: HT29 human colorectal carcinomas; test: Anti-tumor effects, HT29; assay type: in vivo, Nu/nu mice; details: large (1200 mm^3) tumors
Protocol: Anti-tumor effects were also observed in mice bearing HT29 human colorectal carcinomas. Nu/nu mice bearing large (1200 mm^3) tumors on their flanks were injected intravenously with tTF219 or PBS (control), and growth of the tumors was monitored each day for 10 days. The tumors in the tTF219 treated mice discontinued growth for about 7 days after treatment, whereas the tumors in mice treated with PBS continued to grow unchecked.

[9] = test system: C1300 Muγ mouse neuroblastoma; test: In vivo tumor thrombosis, C1300 Muγ; design: species or system BALB/c nu/nu mice
Source text: as §1, §2, §3

[10] = test system: L540 Hodgkin tumors; test: Annexin V inhibition of coaguligand-induced thrombosis in vivo; design: species or system SCID mice
Protocol: The ability of Annexin V to inhibit coaguligand-induced thrombosis in vivo was examined in L540 Hodgkin-bearing SCID mice.
Four hours after the last injection mice were anesthetized and perfused with heparinized saline. Tumors were removed, fixed with 4% formalin, paraffin-embedded and stained with hematoxylene-eosin. The number of thrombosed and non-thrombosed blood vessels were counted and the percentage of thrombosis was calculated.

[11] = test system: IL-1α-stimulated bEnd.3 cells; test: Factor Xa formation by coaguligand on bEnd.3 cells, chromogenic assay; assay type: cell-based, mouse; details: 10 μg per ml
Protocol: The ability of Annexin V to affect Factor Xa formation induced by coaguligand was determined by a chromogenic assay. […] Annexin V was added at concentrations ranging from 0.1 to 10 μg/ml and cells were incubated for 30 min. before addition of diluted Proplex T. The amount of Factor Xa generated in the presence or absence of Annexin V was determined. Each treatment was performed in duplicate and repeated at least twice.

For `Cc1ccc2c(=O)c3cccc(CC(=O)O)c3oc2c1C` [DMXAA], the “fold less effective than endotoxin in inducing TNFα” value [1] is listed as 20 fold.

For `NC(=O)c1nnn(Cc2cc(Cl)c(C(=O)c3ccc(Cl)cc3)c(Cl)c2)c1N` [CAI, carboxyamidotriazole], the “patients with disease stabilization” value [2] is given as 49%.

B1: tTF219: residues 1-219 of TF plus an additional glycine at the N-terminus (protein)
chain: GSGTTNTVAAYNLTWKSTNFKTILEWEPKPVNQVYTVQISTKSGDWKSKCFYTTDTECDLTDEIVKDVKQTYLARVFSYPAGNVESTGSAGEPLYENSPEFTPYLETNLGQPTIQSFEQVGTKVNVTVEDERTLVRRNNTFLSLRDVFGKDLIYTLYYWKSSSSGKKTAKTNTNEFLIDVDKGENYCFSVQAVIPSRTVNRKSTDSPVECMGQEKGEFRE
For B1, the “tumor vessels thrombosed, average” value [3] was 62%, the “necrosis, average area as percentage of total tumor area” value [4] was “some necrosis” and the “thrombosis of tumor vessels” value [5] was “virtually all vessels were thrombosed”. For the same molecule, the coagulation time ([6]; 10^−10 M tTF219, absence of Factor VIIa) was 60 s, the coagulation time ([6]; 10^−10 M tTF219, presence of 13.5 nM Factor VIIa) was 20 s and the “tumor size relative to mice receiving diluent alone” value ([7]; 16-20 μg i.v., repeated one week later, one week after the second treatment) was 60%. For the same molecule, the “tumor size relative to controls receiving diluent alone” value ([7]; treatment repeated 6 days later, fourteen days after the first injection) was 75%, the “time tumors discontinued growth after treatment” value [8] was “about 7 days” and the “thrombosis of tumor vessels” value ([9]; 24 hours after injection) was “practically all vessels in all regions of the tumor were thrombosed”. For the same molecule, the “effect on vessels in small tumors” value ([9]; small (<500 mm^3) C1300 and C1300 Muγ) was “largely unaffected”.

B2: Annexin V: binds to PS with high affinity (protein, UniProt P08758 2-320, looked up)
Annexin A5: AQVLRGTVTDFPGFDERADAETLRKAMKGLGTDEESILTLLTSRSNAQRQEISAAFKTLFGRDLLDDLKSELTGKFEKLIVALMKPSRLYDAYELKHALKGAGTNEKVLTEIIASRTPEELRAIKQVYEEEYGSSLEDDVVGDTSGYYQRMLVVLLQANRDPDAGIDEAQVEQDAQALFQAGELKWGTDEEKFITIFGTRSVSHLRKVFDKYMTISGFQIEETIDRETSGNLEQLLLAVVKSIRSIPAYLAETLYYAMKGAGTDDHTLIRVMVSRSEIDLFNIRKEFRKNFATSLYSMIKGDTSGDYKKALLLLCGEDD
In the case of B2, the “effect of pre-treatment on coaguligand-induced anti-tumor effects” value ([10]; 100 μg Annexin V 2 hours before 40 μg coaguligand) is reported as “completely abolished”, the “effect on tumor morphology” value ([10]; 100 μg Annexin V alone) is reported as “did not alter tumor morphology” and the “inhibition of factor Xa production” value [11] is reported as 58%.
